# Data published in article PMC3912074 (FEBS letters, 2013).
# T1: BF1314 (Bacteroides fragilis, UniProt Q5LFS7)
# T1 sequence (Q5LFS7 1-410): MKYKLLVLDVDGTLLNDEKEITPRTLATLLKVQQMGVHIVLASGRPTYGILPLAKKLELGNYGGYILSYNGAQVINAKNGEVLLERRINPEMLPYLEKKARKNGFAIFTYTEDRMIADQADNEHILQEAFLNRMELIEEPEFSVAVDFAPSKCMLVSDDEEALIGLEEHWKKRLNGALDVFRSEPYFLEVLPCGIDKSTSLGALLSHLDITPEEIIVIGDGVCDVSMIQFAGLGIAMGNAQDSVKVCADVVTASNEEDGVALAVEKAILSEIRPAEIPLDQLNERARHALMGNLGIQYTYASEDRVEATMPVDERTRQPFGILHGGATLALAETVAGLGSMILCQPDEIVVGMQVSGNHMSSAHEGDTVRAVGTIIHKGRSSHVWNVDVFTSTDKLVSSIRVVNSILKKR
# T2: PG1653 (Porphyromonas gingivalis, UniProt Q7MU91)
# T2 sequence (Q7MU91 1-407): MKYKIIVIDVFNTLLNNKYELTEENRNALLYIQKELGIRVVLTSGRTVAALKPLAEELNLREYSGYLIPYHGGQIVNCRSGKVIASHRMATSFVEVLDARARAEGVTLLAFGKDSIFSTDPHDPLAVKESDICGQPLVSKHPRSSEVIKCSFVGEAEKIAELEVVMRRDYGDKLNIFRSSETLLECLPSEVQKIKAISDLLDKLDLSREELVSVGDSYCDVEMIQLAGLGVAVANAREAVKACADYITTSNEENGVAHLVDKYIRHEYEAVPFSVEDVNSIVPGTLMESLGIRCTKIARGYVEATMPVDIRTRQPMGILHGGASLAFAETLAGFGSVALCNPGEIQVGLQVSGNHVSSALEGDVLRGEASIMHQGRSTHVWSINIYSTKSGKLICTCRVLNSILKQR
# T3: BVU2420 (Phocaeicola vulgatus, UniProt A6L315)
# T3 sequence (A6L315 1-135): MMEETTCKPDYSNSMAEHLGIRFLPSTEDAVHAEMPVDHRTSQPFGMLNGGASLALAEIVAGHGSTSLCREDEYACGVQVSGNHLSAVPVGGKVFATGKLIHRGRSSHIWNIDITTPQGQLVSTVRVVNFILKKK
# B1: PG1653 (Porphyromonas gingivalis W83) (protein)
# chain: MKYKIIVIDVFNTLLNNKYELTEENRNALLYIQKELGIRVVLTSGRTVAALKPLAEELNLREYSGYLIPYHGGQIVNCRSGKVIASHRMATSFVEVLDARARAEGVTLLAFGKDSIFSTDPHDPLAVKESDICGQPLVSKHPRSSEVIKCSFVGEAEKIAELEVVMRRDYGDKLNIFRSSETLLECLPSEVQKIKAISDLLDKLDLSREELVSVGDSYCDVEMIQLAGLGVAVANAREAVKACADYITTSNEENGVAHLVDKYIRHEYEAVPFSVEDVNSIVPGTLMESLGIRCTKIARGYVEATMPVDIRTRQPMGILHGGASLAFAETLAGFGSVALCNPGEIQVGLQVSGNHVSSALEGDVLRGEASIMHQGRSTHVWSINIYSTKSGKLICTCRVLNSILKQR
# B2: BVU2420 (Phocaeicola vulgatus ATCC 8482) (protein)
# chain: MMEETTCKPDYSNSMAEHLGIRFLPSTEDAVHAEMPVDHRTSQPFGMLNGGASLALAEIVAGHGSTSLCREDEYACGVQVSGNHLSAVPVGGKVFATGKLIHRGRSSHIWNIDITTPQGQLVSTVRVVNFILKKK
# B3: BF1314 (Bacteroides fragilis NCTC 9343) (protein)
# chain: MKYKLLVLDVDGTLLNDEKEITPRTLATLLKVQQMGVHIVLASGRPTYGILPLAKKLELGNYGGYILSYNGAQVINAKNGEVLLERRINPEMLPYLEKKARKNGFAIFTYTEDRMIADQADNEHILQEAFLNRMELIEEPEFSVAVDFAPSKCMLVSDDEEALIGLEEHWKKRLNGALDVFRSEPYFLEVLPCGIDKSTSLGALLSHLDITPEEIIVIGDGVCDVSMIQFAGLGIAMGNAQDSVKVCADVVTASNEEDGVALAVEKAILSEIRPAEIPLDQLNERARHALMGNLGIQYTYASEDRVEATMPVDERTRQPFGILHGGATLALAETVAGLGSMILCQPDEIVVGMQVSGNHMSSAHEGDTVRAVGTIIHKGRSSHVWNVDVFTSTDKLVSSIRVVNSILKKR
# B4: BF1314-HAD Domain (Bacteroides fragilis NCTC 9343) (protein)
# chain: MKYKLLVLDVDGTLLNDEKEITPRTLATLLKVQQMGVHIVLASGRPTYGILPLAKKLELGNYGGYILSYNGAQVINAKNGEVLLERRINPEMLPYLEKKARKNGFAIFTYTEDRMIADQADNEHILQEAFLNRMELIEEPEFSVAVDFAPSKCMLVSDDEEALIGLEEHWKKRLNGALDVFRSEPYFLEVLPCGIDKSTSLGALLSHLDITPEEIIVIGDGVCDVSMIQFAGLGIAMGNAQDSVKVCADVVTASNEEDGVALAVEKAILSEIRPAEIPLDQLNERARHAL
# Key:
# BF1314 = molecular target: T1, BF1314; assay: DTNB-coupled thioesterase assay, […] nm; type: biochemical; conditions: pH 7.5, 25 °C, 50 mM HEPES, 0.15 M KCl, 1 mM DTNB
# PG1653 = molecular target: T2, PG1653; assay: DTNB-coupled thioesterase assay, […] nm; type: biochemical; conditions: pH 7.5, 25 °C, 50 mM HEPES, 0.15 M KCl, 1 mM DTNB
# BVU2420 = molecular target: T3, BVU2420; assay: DTNB-coupled thioesterase assay, […] nm; type: biochemical; conditions: pH 7.5, 25 °C, 50 mM HEPES, 0.15 M KCl, 1 mM DTNB
# purified protein [1] = substrate: CC(C)(COP(=O)(O)OP(=O)(O)OC[C@H]1O[C@@H](n2cnc3c(N)ncnc32)[C@H](O)[C@@H]1OP(=O)(O)O)[C@@H](O)C(=O)NCCC(=O)NCCSC(=O)Cc1cccc(O)c1; assay: purified protein; type: biochemical, Porphyromonas gingivalis; conditions: pH 7.5, 25 °C, 50 mM HEPES, 0.15 M KCl, 1 mM DTNB
# purified protein [2] = substrate: CC(C)(COP(=O)(O)OP(=O)(O)OC[C@H]1O[C@@H](n2cnc3c(N)ncnc32)[C@H](O)[C@@H]1OP(=O)(O)O)[C@@H](O)C(=O)NCCC(=O)NCCSC(=O)c1cc(O)c2ccccc2c1O; assay: purified protein; type: biochemical, Porphyromonas gingivalis; conditions: pH 7.5, 25 °C, 50 mM HEPES, 0.15 M KCl, 1 mM DTNB
# purified protein [3] = substrate: CC(C)(COP(=O)(O)OP(=O)(O)OC[C@H]1O[C@@H](n2cnc3c(N)ncnc32)[C@H](O)[C@@H]1OP(=O)(O)O)[C@@H](O)C(=O)NCCC(=O)NCCSC(=O)c1ccccc1; assay: purified protein; type: biochemical, Porphyromonas gingivalis; conditions: pH 7.5, 25 °C, 50 mM HEPES, 0.15 M KCl, 1 mM DTNB
# purified protein [4] = substrate: CC(C)(COP(=O)(O)OP(=O)(O)OC[C@H]1O[C@@H](n2cnc3c(N)ncnc32)[C@H](O)[C@@H]1OP(=O)(O)O)[C@@H](O)C(=O)NCCC(=O)NCCSC(=O)c1ccc(O)cc1; assay: purified protein; type: biochemical, Porphyromonas gingivalis; conditions: pH 7.5, 25 °C, 50 mM HEPES, 0.15 M KCl, 1 mM DTNB
# purified protein [5] = substrate: CC(C)(COP(=O)(O)OP(=O)(O)OC[C@H]1O[C@@H](n2cnc3c(N)ncnc32)[C@H](O)[C@@H]1OP(=O)(O)O)[C@@H](O)C(=O)NCCC(=O)NCCSC(=O)Cc1cccc(O)c1; assay: purified protein; type: biochemical, Phocaeicola vulgatus; conditions: pH 7.5, 25 °C, 50 mM HEPES, 0.15 M KCl, 1 mM DTNB
# purified protein [6] = substrate: CC(C)(COP(=O)(O)OP(=O)(O)OC[C@H]1O[C@@H](n2cnc3c(N)ncnc32)[C@H](O)[C@@H]1OP(=O)(O)O)[C@@H](O)C(=O)NCCC(=O)NCCSC(=O)c1cc(O)c2ccccc2c1O; assay: purified protein; type: biochemical, Phocaeicola vulgatus; conditions: pH 7.5, 25 °C, 50 mM HEPES, 0.15 M KCl, 1 mM DTNB
# purified protein [7] = substrate: CC(C)(COP(=O)(O)OP(=O)(O)OC[C@H]1O[C@@H](n2cnc3c(N)ncnc32)[C@H](O)[C@@H]1OP(=O)(O)O)[C@@H](O)C(=O)NCCC(=O)NCCSC(=O)c1ccccc1; assay: purified protein; type: biochemical, Phocaeicola vulgatus; conditions: pH 7.5, 25 °C, 50 mM HEPES, 0.15 M KCl, 1 mM DTNB
# purified protein [8] = substrate: CC(C)(COP(=O)(O)OP(=O)(O)OC[C@H]1O[C@@H](n2cnc3c(N)ncnc32)[C@H](O)[C@@H]1OP(=O)(O)O)[C@@H](O)C(=O)NCCC(=O)NCCSC(=O)c1ccc(O)cc1; assay: purified protein; type: biochemical, Phocaeicola vulgatus; conditions: pH 7.5, 25 °C, 50 mM HEPES, 0.15 M KCl, 1 mM DTNB
# purified protein [9] = substrate: CC(C)(COP(=O)(O)OP(=O)(O)OC[C@H]1O[C@@H](n2cnc3c(N)ncnc32)[C@H](O)[C@@H]1OP(=O)(O)O)[C@@H](O)C(=O)NCCC(=O)NCCSC(=O)Cc1cccc(O)c1; assay: purified protein; type: biochemical, Bacteroides fragilis; conditions: pH 7.5, 25 °C, 50 mM HEPES, 0.15 M KCl, 1 mM DTNB
# purified protein [10] = substrate: NC(=O)OP(=O)(O)O; assay: purified protein; type: biochemical, Bacteroides fragilis; conditions: pH 7.5, 25 °C, 1 mM MgCl2 (table; methods say 2 mM)
# purified protein [11] = substrate: CC(C)(COP(=O)(O)OP(=O)(O)OC[C@H]1O[C@@H](n2cnc3c(N)ncnc32)[C@H](O)[C@@H]1OP(=O)(O)O)[C@@H](O)C(=O)NCCC(=O)NCCSC(=O)c1cc(O)c2ccccc2c1O; assay: purified protein; type: biochemical, Bacteroides fragilis; conditions: pH 7.5, 25 °C, 50 mM HEPES, 0.15 M KCl, 1 mM DTNB
# purified protein [12] = substrate: CC(C)(COP(=O)(O)OP(=O)(O)OC[C@H]1O[C@@H](n2cnc3c(N)ncnc32)[C@H](O)[C@@H]1OP(=O)(O)O)[C@@H](O)C(=O)NCCC(=O)NCCSC(=O)c1ccccc1; assay: purified protein; type: biochemical, Bacteroides fragilis; conditions: pH 7.5, 25 °C, 50 mM HEPES, 0.15 M KCl, 1 mM DTNB
# purified protein [13] = substrate: CC(C)(COP(=O)(O)OP(=O)(O)OC[C@H]1O[C@@H](n2cnc3c(N)ncnc32)[C@H](O)[C@@H]1OP(=O)(O)O)[C@@H](O)C(=O)NCCC(=O)NCCSC(=O)c1ccc(O)cc1; assay: purified protein; type: biochemical, Bacteroides fragilis; conditions: pH 7.5, 25 °C, 50 mM HEPES, 0.15 M KCl, 1 mM DTNB
# purified protein [14] = substrate: NC(=O)OP(=O)(O)O; assay: purified protein; conditions: pH 7.5, 25 °C, 1 mM MgCl2 (table; methods say 2 mM)
# purified protein [15] = substrate: CC(=O)OP(=O)(O)O; assay: purified protein; conditions: pH 7.5, 25 °C, 1 mM MgCl2 (table; methods say 2 mM)
# purified protein [16] = substrate: O=P(O)(O)OC[C@H](O)CO; assay: purified protein; conditions: pH 7.5, 25 °C, 1 mM MgCl2 (table; methods say 2 mM)
# purified protein [17] = substrate: O=P(O)(O)NP(=O)(O)O; assay: purified protein; conditions: pH 7.5, 25 °C, 1 mM MgCl2 (table; methods say 2 mM)
molecule,measurement,setting,value
napthoyl-CoA,Km,BF1314,230 µM
same,Km,PG1653,170 µM
same,Km,BVU2420,180 µM
B1,Km,purified protein [1],(1.7 ± 0.3) × 10^2 μM
same,kcat,purified protein [1],0.31 ± 0.02 s⁻¹
same,Km,purified protein [2],4.0 ± 0.3 µM
same,kcat,purified protein [2],10 ± 1 s⁻¹
same,Km,purified protein [3],(5.8 ± 0.5) × 10^1 μM
same,kcat,purified protein [3],0.03 ± 0.001 s⁻¹
same,Km,purified protein [4],(8.0 ± 0.6) × 10^2 μM
same,kcat,purified protein [4],4.6 ± 0.1 s⁻¹
B2,Km,purified protein [5],(8.1 ± 0.6) × 10^2 μM
same,kcat,purified protein [5],0.034 ± 0.001 s⁻¹
same,Km,purified protein [6],(1.5 ± 0.1) × 10^1 μM
same,kcat,purified protein [6],13 ± 1 s⁻¹
same,Km,purified protein [7],(3.1 ± 0.4) × 10^1 μM
same,kcat,purified protein [7],0.028 ± 0.001 s⁻¹
same,Km,purified protein [8],(3.3 ± 0.2) × 10^1 μM
same,kcat,purified protein [8],1.2 ± 0.1 s⁻¹
B3,Km,purified protein [9],(4.6 ± 0.4) × 10^1 μM
same,kcat,purified protein [9],0.19 ± 0.01 s⁻¹
same,Km,purified protein [10],440 ± 30 µM
same,kcat,purified protein [10],0.0217 ± 0.00167 s⁻¹
same,kcat/Km,purified protein [10],54 M⁻¹ s⁻¹
same,Km,purified protein [11],7.0 ± 0.5 µM
same,kcat,purified protein [11],12 ± 1 s⁻¹
same,Km,purified protein [12],(8.4 ± 0.8) × 10^1 μM
same,kcat,purified protein [12],0.024 ± 0.002 s⁻¹
same,Km,purified protein [13],(2.3 ± 0.2) × 10^2 μM
same,kcat,purified protein [13],1.1 ± 0.1 s⁻¹
B4,Km,purified protein [14],970 ± 80 µM
same,kcat,purified protein [14],0.04167 ± 0.000333 s⁻¹
same,kcat/Km,purified protein [14],42 M⁻¹ s⁻¹
same,Km,purified protein [15],870 ± 60 µM
same,kcat,purified protein [15],0.02 ± 0.00167 s⁻¹
same,kcat/Km,purified protein [15],23 M⁻¹ s⁻¹
same,Km,purified protein [16],63 ± 2 µM
same,kcat,purified protein [16],0.011 ± 0.001 s⁻¹
same,kcat/Km,purified protein [16],170 M⁻¹ s⁻¹
same,Km,purified protein [17],7400 ± 500 µM
same,kcat,purified protein [17],0.383 ± 0.0167 s⁻¹
same,kcat/Km,purified protein [17],51 M⁻¹ s⁻¹
